From patent US20220390449A1, “NEW S[…] FOR THE LATENT FORM OF TOXOPLASMOSIS” (INSERM (INSTITUT NATIONAL DE LA SANTÉ ET DE LA RECHERCHE …, priority 2019, published 2022)

Columns and labels:
[1] = tested on: TgHDAC3; settings: low doses, RH strain; cited from earlier work
[2] = tested on: T. gondii-infected HFF cells; test: FR235222 treatment and induction of BCLA (proteomics, western blot, immunofluorescence); type: cell-based, Toxoplasma gondii
Protocol: Host cells and parasites culture. HFF primary cells (Bougdour et al., 2009), RAW264.7, L929, HCT116, A549 and HEK293 cells were cultured in Dulbecco's Modified eagle Medium (DMEM) (Thermo fischer Scientific, France) supplemented with 10% heat-inactivated fetal Bovine Serum (FBS) (Invitrogen), 10 mM (4-(2-hydroxyethyl)-1-piperazine ethanesulphonic acid) (HEPES) buffer pH 7.2, 2 mM L-glutamine and 50 μg/ml of penicillin and streptomycin (Thermo Fisher Scientific). Cells were incubated at 37° C. in 5% CO2. The following Toxoplasma strains were used in this study: type I (RH, GT1), type II (ME49), type III (CTG), atypical (COUG), Neospora caninum; RHΔku80 (Huynh and Carruthers, 2009), PruΔku80 (Fox et al., 2011), PruA7 (Saeij et al., 2007), COUGΔmyr1 (Hakimi, unpublished), PruΔku80Δbcla, PruΔku80-HF-BCLA and 76k-GFP-luc-Δbcla obtained in this study. All parasite strains were maintained in vitro by serial passage on monolayers of HFFs. T. gondii transfection. T. gondii RHΔku80, PruΔku80 and 76k-GFP-luc were electroporated with vectors in cytomix buffer (120 mM KCl, 0.15 mM CaCl2, 10 mM K2HPO4/KH2PO4, pH 7.6, 25 mM HEPES pH 7.6, 2 mM EGTA, 5 mM MgCl2) using a BTX ECM 630 machine (Harvard Apparatus). Electroporation was performed in a 2 mm cuvette at 1.100 V, 25Ω and 25 μF. Stable transgenic parasites were selected with 1 μM pyrimethamine, single-cloned in 96 well plates by limiting dilution and verified by immunofluorescence assay.
FR235222 treatment and induction. FR235222 was provided by Astellas Pharma Inc. (Osaka, Japan) and dissolved into DMSO as described by Bougdour et al., 2009 and the final concentration in culture medium was either 25 ng/mL or 50 ng/mL. The media containing FR235222 was added to infected HFF cells 16 hours after infection for 24 h to 7 days.
Immunofluorescence microscopy. Immunofluorescence assays on in vitro parasites were performed as described previously (Braun et al., 2013). In brief, T. gondii-infected HFF cells grown on coverslips or cysts purified from brains of mice were fixed in 3% formaldehyde for 20 min at room temperature, permeabilised with 0.1% (v/v) Triton X-100 for 15 min and blocked in phosphate-buffered saline (PBS) containing 3% (v/v) bovine serum albumin (BSA). For immunolabeling on histological sections of brains, the brain layers spotted on glass slides were first solvent-dewaxed using toluene for 3*10 min and absolute alcohol for 3*10 min. The slides were then treated with citrate buffer pH 6, heated at 100° C. during 1 hour, rinsed with water for 2*10 min and blocked in PBS containing 3% (v/v) bovine serum albumin (BSA). The cells or brain layers were then incubated for 1 hour with the primary antibodies indicated in the figures followed by the addition of secondary antibodies conjugated to Alexa Fluor 488 or 594 (Molecular Probes) at a 1:1,000 dilution for 1 hour. Nuclei of both host cells and parasites were stained for 10 min at room temperature with Hoechst 33258 at 2 μg/ml in PBS. Coverslips were mounted on a glass slide with Mowiol mounting medium, images were acquired with a fluorescence ZEISS ApoTome.2 microscope and images were processed by ZEN software (Zeiss).
Western Blot. Proteins were separated by SDS-PAGE and transferred to a polyvinylidene fluoride membrane (Immobilon-P; EMP Millipore) by liquid transfer, and Western blots were probed using appropriate primary antibodies followed by phosphatase-conjugated goat secondary antibodies (Promega). Signals were detected using NBT-BCIP (Amresco).

[3] = tested on: anti-T. gondii IgG antibodies of mice; test: Western-blot BCLA serological testing on mice sera; type: binding
Protocol: Mice and Experimental Infection. 6-weeks-old BALBC/c, CBA, NMRI or Swiss mice were obtained from Janvier Laboratories (Le Genest-Saint-Isle, France). Mouse care and experimental procedures were performed under pathogen free conditions in accordance with established institutional guidance and approved protocols from the Institutional Animal Care and Use Committee of the University Grenoble Alpes (agreement no B3851610006). Female mice were used for all studies. For intraperitoneal (i.p.) infection, tachyzoites were grown in vitro and extracted from host cells by passage through a 27-gauge needle, washed three times in PBS, and quantified with a haemocytometer. Parasites were diluted in Hank's Balanced Salt Solution (Life), and mice were inoculated by the i.p. route with tachyzoites of each strain (in 200 μl) using a 28-gauge needle. For oral gavage of infective cysts, brains from chronically infected mice (76k-GFP-luc and 76k-GFP-luc-Δbcla) were crushed in PBS, the number of cysts was microscopically quantified and the mice were forced fed with 100 μl of brain homogenate containing 20 to 40 cysts using ball-tipped feeding needle. Blood was collected by caudal puncture or by intracardiac puncture when the mice were euthanised. Animal euthanasia was completed in an approved CO2 chamber. For histological analysis of ileum and immunolabeling on histological sections of brains or, the ilea and brains were removed from mice, entirely embedded in a paraffin wax block and cut in 5 μm-thick layers using microtome. For statistical analysis of mice survival data, the Mantel-Cox and Gehan-Breslow-Wilcoxon tests were used.
Western-blot BCLA serological testing. Single western blot strips were prepared using 15 well 4-12% NuPage gels (Life technologies) loaded with 5 μl of sample at 0.1 mg/ml. The gels were run at 185 v for 40 minutes in MES buffer then electro-transferred at 105 v for 1.5 h on PVDF membranes. The transferred lanes were then cut-out into individualized strips. The strips were then blocked in TTBS with 5% powdered milk (w/v) for 1 h. Serum testing was then performed in TTBS with a dilution of 1/400 of the serum for 1 h at 4° C. The strips were then washed 3 times in TTBS and further incubated 1 h with a 1/7500 dilution of secondary antibody targeting either mouse IgGs or human IgGs and coupled with a phosphatase alkaline enzyme (Promega). […] Bands in the positive sera appear within 1 to 5 minutes. In parallel to the serum testing, a single strip was always used as an internal antigen control for each blot set. After blocking, this strip was incubated for 1 h with a peroxidase coupled anti poly-histidine monoclonal antibody (Sigma) diluted 1/2000 in TTBS. […] For each series of i.p. or orally infected mice, a serum of at least on mouse of each series was checked for Toxoplasma antibodies using Western blot analysis of the IgG immune response using the commercial kit LD bio Toxoplasma mouse IgG (LD bio), with the same anti-mouse IgG-alkaline phosphatase conjugate and chromogenic substrate previously described for BCLA.

[4] = tested on: anti-T. gondii IgG antibodies of mice; test: Western-blot BCLA serological testing on mice sera; type: binding; remark: listed apart in the source
[5] = tested on: trypsin, chymotrypsin, elastase and papain; test: Limited proteolysis of rBCLA; type: physicochemical; settings: 1/30 w/w, up to 50 minutes at 37° C.
Protocol: Limited proteolysis to find antigenic sub-fragments within Cter-BCLA. To recover a highly antigenic sub-fragment of Cter-BCLA, a limited proteolysis on the purified sample was undertaken using trypsin, chymotrypsin, elastase and papain (all Sigma Aldrich). Reactions were carried out in 30 μl reaction volume in 50 mM Tris pH 8.0, 150 mM NaCl, 5 mM BME and 0.5 mM MgCl2. In each reaction, 3 μg of Cter-BCLA were digested by 100 ng of protease (1/30 w/w) over the course of 50 minutes at 37° C. Reactions were stopped at each time point by the addition of 10 μl of SDS PAGE loading buffer followed by 5 minutes heating at 95° C. then kept on ice until loading on the gel.

[6] = Solubility of rBCLA recombinantly expressed in E. coli; type: physicochemical; settings: native, N-terminal poly-histidine tag
Protocol: Recombinant expression. Transformation was performed using BL21(DE3)-CodonPlus—RIL chemically competent E. coli (Stratagene) which were incubated on ice with 1 μg of the pet30-(a) Cter-BCLA plasmid for 10 minutes, heat shocked at 42° C. for 45 seconds, pre-incubated 45 min in LB at 37° C. then spread on a LB agar plate containing Kanamycin (Kan) and Chloramphenicol (Chlo) and incubated for 12 h. A single colony was then picked to inoculate a LB/Kan/Chlo 50 ml pre-culture grown for 16 h. 5 ml of grown pre-culture were then used to inoculate 1 L flasks of Terrific Broth medium (Formedium) containing Chlo/Kan. Cultures were grown at 37° C. until reaching an OD600 of 0.5-0.8 then induced by adding 0.7 mM IPTG (VWR) and further incubated at 18° C. ON. After incubation, cells were centrifuged 25 min at 3000 G, the supernatant was discarded and the pellet flash frozen in liquid nitrogen and kept at −80° C.
Lysis. Purification was performed on 3 pellets of 1 L cultures, each resuspended in 50 ml of lysis buffer containing 600 mM NaCl, 50 mM Tris pH 8, 5 mM Beta-mercaptoethanol (BME), 0.2% w/v N-Lauryl Sarkozine and 1 Complete anti protease cocktail (Roche) tab per 50 ml. Lysis was performed using a 10 mini-pulsed sonication (15 sec ON, 30 sec OFF) at 50° amplitude over ice with the lysate never reaching a temperature over 13° C. […]

For FR235222, the “in vitro tachyzoite to bradyzoite stage conversion” value [1] is given as “induces”, the “BCLA protein induction (quantitative proteomics LC-MS/MS)” value ([2]; FR235222 90 nM versus DMSO 0.1%, type II (PruΔku80) strain in primary human fibroblasts) is given as “significantly induced” and the “BCLA signal intensity (western blot, ~140-kDa band)” value ([2]; FR235222 versus untreated tachyzoites) is given as “significantly increased”. For the same molecule, the “BCLA signal intensity upon FR235222 (immunofluorescence, per PV)” value ([2]; type I (GT1 and RHΔku80) and haplogroup 11 (COUG) strains) was “rather moderate”, the “BCLA signal intensity upon FR235222 (immunofluorescence, per PV)” value ([2]; type II (PruΔku80, ME49, 76K-GFP-Luc) strain) was “very strong induction” and the “BCLA signal intensity upon FR235222 (immunofluorescence, per PV)” value ([2]; type III (CTG) strain) was “faint (if no) signal”.

B1: rBCLA: C-terminal antigenic domain, res 1089-1275 of BCLA (SEQ ID NO:2), expressed in E. coli as recombinant protein (protein)
chain: MIPGVGDKTEASVLDSIENAVQKVLENLLKAAAGELQPAEAEEARLLVADLKAVVDTAEQVRVEGEAFFRASVDLYEAVKNLRDSEEKLRPLTKGELVDVVRQFLATQIFVQDRASAFLRVFERLAELLAAEQMKAVFAMVEEGVSSSERVARVAGELVPMMKKDRERRYGDLVAVTSWFMRRMEHI
modifications: Synthetic C-terminal antigenic domain (res 1089-1275)
With B1 the “reactivity of rBCLA with mice sera (immunoblot)” value (from here on “reactivity … (immunoblot)”) ([3]; FIG. 8a: NMRI mice, i.p. 10^4 tachyzoites COUG and COUG-Δmyr1, 7 days (acute)) was “not reacting”, the “reactivity … (immunoblot)” value ([3]; FIG. 8b: CBA mice, i.p. 10^3 tachyzoites RH (type I), 7 days (acute)) was “not reacting” and the “reactivity … (immunoblot)” value ([3]; FIG. 9a: Balb/c mice, i.p. 10^3 to 10^6 tachyzoites PruA7 (type II), 42 days) was “reacting quite proportionally”. The “reactivity … (immunoblot)” value ([3]; FIG. 9b: CBA mice, i.p. 10^6 tachyzoites ME49 (type II), 80 days) was “strongly reacting”, the “reactivity … (immunoblot)” value ([3]; FIG. 9c: NMRI mice, oral 20 cysts 76k-GFP-luc (type II), 22 months) was “strongly reacting” and the “reactivity … (immunoblot)” value ([3]; FIG. 9e: CBA mice, i.p. 10^3 tachyzoites RH (type I) followed by pyrimethamine or sulfadiazine treatment, 22 days) was “very slightly reacting”. The “reactivity … (immunoblot)” value ([3]; FIG. 9f: NMRI mice, i.p. 10^6 tachyzoites CTG (type III), 42 days) was “not reacting”, the “reactivity … (immunoblot)” value ([3]; FIG. 9g: NMRI mice, i.p. 10^6 tachyzoites PruΔku80 (type II), 42 days) was “not reacting” and the “reactivity … (immunoblot)” value ([3]; FIG. 11a: Swiss mice i.p. infected with T. gondii PCR positive human amniotic fluid (confirmed congenital toxoplasmosis)) was “strongly reacting”. For the same molecule, the “reactivity … (immunoblot)” value ([3]; FIG. 9h: Balb/c mice, i.p. 10^5 tachyzoites 76k-GFP-luc (type II), reactivating or not with corticosteroids, 42 days) was “strongly reacting”, the “reactivity … (immunoblot)” value ([3]; FIG. 9d: Balb/c mice, i.p. 10^6 tachyzoites 76k-GFP-luc (type II), 21 days) was “strongly reacting” and the “reactivity … (immunoblot)” value ([3]; FIG. 9d: Balb/c mice, i.p. 10^6 tachyzoites 76k-GFP-luc-Δbcla (type II), 21 days) was “barely reacting”. For the same molecule, the “reactivity … (immunoblot)” value ([4]; FIG. 8c: C57BL/6 mice, oral 47 cysts 76k-GFP-luc or 76k-GFP-luc-Δbcla (type II), 8 days (acute)) was “not reacting”, the “reactivity of rBCLA with anti-T. gondii IgM and IgA” value ([4]; mice sera, data not shown) was “not reacting” and the “degradation by protease (SDS PAGE)” value ([5]; chymotrypsin) was “quickly degraded”. The “degradation by protease (SDS PAGE)” value ([5]; elastase, trypsin and papain, stable fragments around the 17-kDa marker) was “partially degraded” and the “solubility on expression in E. coli” value [6] was “natively insoluble”.
